Experimental data published in paper PMC5422253, “Cryo-EM Structure of a Relaxase Reveals the Molecular Basis of DNA Unwinding during Bacterial Conjugation”.

What was measured:
TraI-MBP = TraI-MBP (Escherichia coli conjugative plasmid R1?, UniProt Q6TDU5 1-1756); assay: size exclusion chromatography; after 365 nm photocleavage, peak IV; Anisotropy: 10 nM 22-merAlexa488, 50 mM Tris pH 7.2, 100 mM NaCl, 25 C, 20 min; complexes for gel filtration: protein and ssDNA mixed on ice 10 min (stocks in 50 mM Tris pH 7.2, 100 mM NaCl); EPR complexes: PBS pH 7.4, 1 mM MgCl2; details: protein: recombinant; tags: N-terminal His6 with enterokinase site; C-terminal MBP via TPGSP linker; label: 3'-6-FAM
TraI A1105W/M795A = TraI A1105W/M795A (Escherichia coli conjugative plasmid R1?, UniProt Q6TDU5 1-1756, A1105W;M795A); assay: fluorescence anisotropy; higher affinity than the single mutants A1105W and M795A; Kd only in figure; Anisotropy: 10 nM 22-merAlexa488, 50 mM Tris pH 7.2, 100 mM NaCl, 25 C, 20 min; complexes for gel filtration: protein and ssDNA mixed on ice 10 min (stocks in 50 mM Tris pH 7.2, 100 mM NaCl); EPR complexes: PBS pH 7.4, 1 mM MgCl2; details: protein: recombinant; tags: N-terminal His6 with enterokinase site; label: 3'-Alexa488
TraI1-1475 = target: T1, TraI1-1475 (Escherichia coli conjugative plasmid R1?, UniProt Q6TDU5 1-1475); assay: size exclusion chromatography; after 365 nm photocleavage, peak V; Anisotropy: 10 nM 22-merAlexa488, 50 mM Tris pH 7.2, 100 mM NaCl, 25 C, 20 min; complexes for gel filtration: protein and ssDNA mixed on ice 10 min (stocks in 50 mM Tris pH 7.2, 100 mM NaCl); EPR complexes: PBS pH 7.4, 1 mM MgCl2; details: protein: recombinant; tags: N-terminal His6 with enterokinase site; label: 5'-Cy5; inverted repeat
T1 sequence: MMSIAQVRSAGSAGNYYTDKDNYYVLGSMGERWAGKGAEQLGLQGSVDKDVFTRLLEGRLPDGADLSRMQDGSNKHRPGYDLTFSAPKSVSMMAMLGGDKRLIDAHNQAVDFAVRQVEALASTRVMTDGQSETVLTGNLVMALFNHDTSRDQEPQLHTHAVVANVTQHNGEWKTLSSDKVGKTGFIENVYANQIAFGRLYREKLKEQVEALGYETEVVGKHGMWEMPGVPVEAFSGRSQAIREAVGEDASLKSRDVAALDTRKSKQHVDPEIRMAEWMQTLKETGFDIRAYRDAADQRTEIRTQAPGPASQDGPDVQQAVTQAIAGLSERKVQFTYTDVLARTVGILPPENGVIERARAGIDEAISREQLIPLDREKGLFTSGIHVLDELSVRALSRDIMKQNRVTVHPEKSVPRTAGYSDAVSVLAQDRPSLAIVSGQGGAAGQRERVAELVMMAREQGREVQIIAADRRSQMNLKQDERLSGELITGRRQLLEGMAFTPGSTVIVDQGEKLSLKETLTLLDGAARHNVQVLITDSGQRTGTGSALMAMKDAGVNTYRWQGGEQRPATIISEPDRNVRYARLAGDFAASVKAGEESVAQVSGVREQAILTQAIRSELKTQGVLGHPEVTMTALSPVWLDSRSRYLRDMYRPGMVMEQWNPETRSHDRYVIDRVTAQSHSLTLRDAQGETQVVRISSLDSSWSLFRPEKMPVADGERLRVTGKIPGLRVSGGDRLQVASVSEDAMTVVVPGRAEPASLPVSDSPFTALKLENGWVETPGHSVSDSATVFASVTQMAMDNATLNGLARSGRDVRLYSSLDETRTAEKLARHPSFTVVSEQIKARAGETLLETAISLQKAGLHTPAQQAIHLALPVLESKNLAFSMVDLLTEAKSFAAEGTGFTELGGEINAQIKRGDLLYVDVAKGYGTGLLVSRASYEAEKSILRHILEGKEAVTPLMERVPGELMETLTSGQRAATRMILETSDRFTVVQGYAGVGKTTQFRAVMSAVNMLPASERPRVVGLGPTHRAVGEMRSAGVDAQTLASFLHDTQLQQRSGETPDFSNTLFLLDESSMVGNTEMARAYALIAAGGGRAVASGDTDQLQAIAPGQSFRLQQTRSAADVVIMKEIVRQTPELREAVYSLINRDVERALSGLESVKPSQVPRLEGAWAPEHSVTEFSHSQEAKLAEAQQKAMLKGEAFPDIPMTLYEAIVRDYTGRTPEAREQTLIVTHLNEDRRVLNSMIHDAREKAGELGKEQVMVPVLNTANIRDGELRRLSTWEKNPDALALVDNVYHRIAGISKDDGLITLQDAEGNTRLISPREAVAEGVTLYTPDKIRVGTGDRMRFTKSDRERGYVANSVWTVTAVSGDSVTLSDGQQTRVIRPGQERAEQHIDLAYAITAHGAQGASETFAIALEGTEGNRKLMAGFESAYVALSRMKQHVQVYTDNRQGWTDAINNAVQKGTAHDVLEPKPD

TraI relaxase wild-type [1] = target: T2, TraI relaxase wild-type (Escherichia coli conjugative plasmid R1 …, UniProt Q6TDU5 1-1756); assay: size exclusion chromatography; protein:ssDNA 1:1, 2:1, 4:1; TraI dimer forms on 49-mer; Anisotropy: 10 nM 22-merAlexa488, 50 mM Tris pH 7.2, 100 mM NaCl, 25 C, 20 min; complexes for gel filtration: protein and ssDNA mixed on ice 10 min (stocks in 50 mM Tris pH 7.2, 100 mM NaCl); EPR complexes: PBS pH 7.4, 1 mM MgCl2; details: protein: recombinant; tags: N-terminal His6 with enterokinase site; inverted repeat 5' of nic
TraI relaxase wild-type [2] = target: T2, TraI relaxase wild-type; assay: limited trypsin proteolysis; open, protease-sensitive conformer; Anisotropy: 10 nM 22-merAlexa488, 50 mM Tris pH 7.2, 100 mM NaCl, 25 C, 20 min; complexes for gel filtration: protein and ssDNA mixed on ice 10 min (stocks in 50 mM Tris pH 7.2, 100 mM NaCl); EPR complexes: PBS pH 7.4, 1 mM MgCl2; details: protein: recombinant; tags: N-terminal His6 with enterokinase site; inverted repeat
TraI relaxase wild-type [3] = target: T2, TraI relaxase wild-type; assay: limited trypsin proteolysis; 1:1 complex; pattern as with 22-mer; Anisotropy: 10 nM 22-merAlexa488, 50 mM Tris pH 7.2, 100 mM NaCl, 25 C, 20 min; complexes for gel filtration: protein and ssDNA mixed on ice 10 min (stocks in 50 mM Tris pH 7.2, 100 mM NaCl); EPR complexes: PBS pH 7.4, 1 mM MgCl2; details: protein: recombinant; tags: N-terminal His6 with enterokinase site

GCTTTTGGTGGTGAGAACC (ssDNA, 5' end from PC linker photocleavage) [19-mer-6-FAM photocleavage product]: binds (TraI-MBP).

GGTGCTTTTGGTGGTGAGAACC (ssDNA) [22-merAlexa488]: binds (TraI A1105W/M795A).

GCAAAAACTTGTTTTTGCGTGGGGTGTGGT (ssDNA, 3' end from PC linker photocleavage) [Cy5-30-mer photocleavage product]: binds (TraI1-1475).

GCAAAAACTTGTTTTTGCGTGGGGTGTGGTGCTTTTGGTGGTGAGAACC (ssDNA) [49-mer oriT]: binds (TraI relaxase wild-type [1]).

GCAAAAACTTGTTTTTGCGTGGGGTGTGGT (ssDNA) [30-mer]: binds (TraI relaxase wild-type [2]).

GCTTTTGGTGGTGAGAACC (ssDNA) [19-mer]: binds (TraI relaxase wild-type [3]).
